According to patent publication US20210261677A1 (ORICELL THERAPEUTICS, published 2021):
Numbering of substitutions follows the chain as printed.

T1: recombinant dog PD-L1-Fc (70110-DO2H, Sino Biological Inc.) (dog, UniProt E2RKZ5 19-236, Biotinylated on lysines/amines (EZ-Link Sulfo-NHS-LC-Biotin); positions not defined)
T1 construct: Bought; also called Dog PD-L1-Fc-Biotin; canine PD-L1; not shown: Fc part and any linker of the bought fusion (Sino Biological 70110-DO2H)
T1 sequence: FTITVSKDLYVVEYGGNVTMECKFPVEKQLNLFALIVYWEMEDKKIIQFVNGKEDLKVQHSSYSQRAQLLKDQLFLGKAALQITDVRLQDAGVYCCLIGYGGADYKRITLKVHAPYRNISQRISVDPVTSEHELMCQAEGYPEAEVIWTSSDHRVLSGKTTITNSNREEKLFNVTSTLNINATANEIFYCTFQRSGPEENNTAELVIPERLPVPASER

B1: anti-PD-L1 fully human antibody YN-002 (antibody, human IgG1, lambda, V domains shown)
VH: QVQLVQSGAEVRKPGSSVKVSCKASGGTFSSYAISWVRQAPGQGLEWMGRIIPILGIANYAQKFQGRVTITADKSTSTAYMELSSLRSEDTAVYYCARTMDGYSYGNFDYWGQGTLVTVSS
VL: QSALTQPASVSGSPGQSITISCTGTSSDVGGYNYVSWYQQHPGKAPKLLIYGNSNRPSGVPDRFSGSKSGTSASLAITGLQAEDEADYYCQSYDSSLSGSVFGGGTKLTVLG
notes: Intact IgG1,lambda antibody of phage antibody 1B10, expressed in 293F cells
B2: anti-PD-L1 fully human antibody YN-003 (antibody, human IgG1, lambda, V domains shown)
VH: B1 VH with R12K
VL: B1 VL with L49M, P61S, D62N, T71N, S72T, A76T, T78S
notes: Germline version of YN-002; IgG1,lambda

How the values were obtained:
[1] = molecular target: T2, mouse PD-L1 on CHO cells that stably expressed mouse PD-L1 (mouse, UniProt Q9EP73 19-290); assay: flow cytometry competition: biotin-labelled mouse PD-1-Fc at a subsaturated concentration on CHO cells stably expressing mouse PD-L1, antibody titrated, streptavidin R-PE detection
T2 construct: whole, on cells; also called CHO cells expressing mouse PD-L1
Method: After cell washing, Streptavidin R-PE Conjugate (life technology, SA10041) was added and incubated (4° C., 30 min). After cell washing, the fluorescence intensity was detected by flow cytometer (Intellicyt iQue Screener).

[2] = molecular target: T1, recombinant dog PD-L1-Fc (70110-DO2H, …); assay: BLI (Octet RED384), biotinylated antigen on SA sensor, antibody in solution
Method: (§1) The antigen-antibody binding kinetics were analyzed by a biofilm interference (BLI) technology, using a molecular interaction analyzer (Octet RED384, purchased from Pall ForteBio Analytics Co., Ltd.) and using a PBS buffer containing 0.1% BSA and 0.02% Tween 20. A biotin-coupled antigen protein with a concentration of 50 nM was fixed with the SA sensor (Pall ForteBio Analytics Co., Ltd.), and bound at 1500 rpm for 10 minutes; then it was bound with the double-diluted antibody solution at 1500 rpm for 10 minutes; and finally dissociated at 1500 rpm for 10 minutes. The obtained results would be analyzed by Octet Data Analysis 9.0 software (Pall ForteBio Analytics Co., Ltd.) to give the KD, Kₒₙ (1/Ms) and Koff (1/s).

[3] = molecular target: T3, recombinant human PD-L1-Fc protein (Origincell Therapeutics Co., Ltd.) (human, UniProt Q9NZQ7 19-238, limits assumed); assay: as above
T3 construct: Labeled with biotin (EZ-Link Sulfo-NHS-LC-Biotin) for the BLI assays; unlabeled in the phage ELISA; also called Human PD-L1-Fc-Biotin; not shown: Fc part
Method: as §1

[4] = molecular target: T4, recombinant Macaca fascicularis PD-L1-Fc (90251-CO2H, Sino Biological Inc.) (Macaca fascicularis, UniProt G7PSE7 19-239); assay: as above
T4 construct: Bought; also called Macaca Fascicularis PD-L1-Fc-Biotin; not shown: Fc part
Method: as §1

[5] = molecular target: T5, recombinant mouse PD-L1-Fc protein (M5251, ACROBiosystems Inc.) (mouse, UniProt Q9EP73 19-238); assay: as above
T5 construct: Bought; Labeled with biotin for the BLI assays; unlabeled in the phage ELISA; also called Mouse PD-L1-Fc-Biotin; not shown: Fc part
Method: as §1

[6] = molecular target: T6, human PD-L1 on cells (CHO cells that stably expressed human PD-L1; MDA-MB-231 cells) (human, UniProt Q9NZQ7 19-290); assay: flow cytometry competition: biotin-labelled human PD-1-Fc at a subsaturated concentration on CHO cells stably expressing human PD-L1, antibody titrated, streptavidin R-PE detection
T6 construct: whole, on cells; Stably expressed on CHO cells; also called CHO cells expressing human PD-L1
Method: After cell washing, Streptavidin R-PE Conjugate (life technology, SA10041) was added and incubated (4° C., 30 min). After cell washing, the fluorescence intensity was detected by a flow cytometer (Intellicyt iQue Screener).

T3 sequence (Q9NZQ7 19-238 limits assumed): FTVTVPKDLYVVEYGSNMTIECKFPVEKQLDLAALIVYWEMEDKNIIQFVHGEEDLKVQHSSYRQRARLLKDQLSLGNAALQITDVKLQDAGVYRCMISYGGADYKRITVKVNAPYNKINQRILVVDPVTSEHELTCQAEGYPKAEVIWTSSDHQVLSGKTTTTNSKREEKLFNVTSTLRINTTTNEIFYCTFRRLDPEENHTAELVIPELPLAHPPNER
T4 sequence (G7PSE7 entry or part of it): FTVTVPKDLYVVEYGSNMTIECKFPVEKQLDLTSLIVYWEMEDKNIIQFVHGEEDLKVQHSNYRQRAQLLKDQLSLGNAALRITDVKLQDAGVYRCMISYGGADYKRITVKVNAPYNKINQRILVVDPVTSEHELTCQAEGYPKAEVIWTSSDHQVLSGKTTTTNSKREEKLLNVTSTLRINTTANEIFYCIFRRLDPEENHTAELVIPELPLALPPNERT
T5 sequence (Q9EP73 19-238 limits assumed): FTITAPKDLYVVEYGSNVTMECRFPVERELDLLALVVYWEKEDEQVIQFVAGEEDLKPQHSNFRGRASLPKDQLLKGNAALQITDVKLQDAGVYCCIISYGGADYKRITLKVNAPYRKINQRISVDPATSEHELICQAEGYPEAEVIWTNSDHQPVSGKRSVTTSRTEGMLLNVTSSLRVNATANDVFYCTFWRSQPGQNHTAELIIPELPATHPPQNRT
T6 sequence (Q9NZQ7 19-290): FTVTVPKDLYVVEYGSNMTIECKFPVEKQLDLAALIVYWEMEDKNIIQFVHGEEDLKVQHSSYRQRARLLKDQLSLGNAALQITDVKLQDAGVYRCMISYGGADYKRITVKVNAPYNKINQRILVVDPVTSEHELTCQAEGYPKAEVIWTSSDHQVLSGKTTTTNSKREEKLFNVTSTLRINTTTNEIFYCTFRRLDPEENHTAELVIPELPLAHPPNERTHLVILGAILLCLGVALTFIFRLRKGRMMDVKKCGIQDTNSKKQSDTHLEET
T2 sequence (Q9EP73 19-290): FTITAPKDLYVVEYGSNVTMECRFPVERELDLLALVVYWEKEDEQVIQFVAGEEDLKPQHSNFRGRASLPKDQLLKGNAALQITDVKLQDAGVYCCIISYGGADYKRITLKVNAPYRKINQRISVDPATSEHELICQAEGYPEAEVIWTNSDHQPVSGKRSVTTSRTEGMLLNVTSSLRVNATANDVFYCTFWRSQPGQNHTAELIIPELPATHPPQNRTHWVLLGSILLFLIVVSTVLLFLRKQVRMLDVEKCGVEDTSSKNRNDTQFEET

Row | Binder | IC50 (read off the curve) [1] [µg/mL] | Kd [2] [pM] | koff [2] [s⁻¹] | kon [2] [M⁻¹ s⁻¹] | Kd [3] [pM] | koff [3] [s⁻¹] | kon [3] [M⁻¹ s⁻¹] | Kd [4] [pM] | koff [4] [s⁻¹] | kon [4] [M⁻¹ s⁻¹] | Kd [5] [pM] | koff [5] [s⁻¹] | kon [5] [M⁻¹ s⁻¹] | IC50 (read off the curve) [6] [µg/mL]
1 | B1 | ~0.1 | 743 | 0.000759 | 1.02e+06 | 888 | 0.000594 | 669000 | 1070 | 0.0019 | 1.77e+06 | 1720 | 0.00168 | 977000 | ~1
2 | B2 | ~0.06 | 594 | 0.000514 | 864000 | 408 | 0.000611 | 1.5e+06 | 654 | 0.00136 | 2.08e+06 | 996 | 0.000997 | 1.03e+06 | ~0.2
